Assay: ThDPS glycosidase activity determination (DNS method), hydrolysis of Dendrobium polysaccharides
Format: biochemical
Conditions: for enzymatic activity of expression product (hydrolysis of Dendrobium polysaccharides): crude supernatant of recombinant E. coli BL21 (DE3)
Method: Enzymatic activity definition: the amount of enzyme that can convert 1micromole of substrate per 1 minute at 37° C. is defined as one unit of enzymatic activity (U).
Enzymatic activity determination: ThDPS glycosidases can decompose Dendrobium polysaccharides into mannan oligosaccharides. The mannan oligosaccharide has reducibility and can undergo a certain chemical reaction with a DNS reagent under alkaline conditions to generate 3-amin-5-nitrosalicylic acid that is brownish-red under boiling conditions. The amount of reducing sugar generated can be measured with a spectrophotometer. The gradation of the color of the acid is related to the content of the reducing sugar.
Specific steps for enzymatic activity determination are as follows: a total reaction system is 2 mL, containing 1 mL of a Dendrobium polysaccharide solution with a concentration of 4 g/L, 200 μL of a phosphate buffer with a concentration of 200 mM, and 10 μL of an enzyme solution. 10 μL of distilled water is added to a control group, and water is replenished to a total volume of 2 mL for all reaction solutions. A mixed reaction solution is incubated at 37° C. for 30 min. After being taken out, the incubated mixed reaction solution is placed in a boiling water bath for 1 min to inactivate the enzymes. 2 mL of a DNS solution is added into each tube, and the tube is placed in the boiling water bath for 3 min, and then is rapidly cooled, and 1 mL of distilled water is added […]. The absorbance is measured at the wavelength of 540 nm to determine the enzymatic activity.
The recombinant bacteria constructed in step 1 were inoculated into a test tube containing 5 mL of LB medium (containing 100 ug/mL ampicillin), and underwent shake-flask culture at 37° C. and 200 r/min for 16 h. As a seed solution, the cultured bacterial solution was transferred into 100 mL of LB liquid medium (containing 100 ug/mL ampicillin) with an inoculum size of 1%, and underwent shake-flask culture at 37° C. and 200 rpm until OD600 was 0.6. 0.1 mM of IPTG was added to induce expression, and shaking culture was carried out for 24 h at 37° C. and 200 rpm. The obtained fermentation broth was centrifuged at 8000×g and 4° C. for 10 min, the supernatant was removed, and bacterial cells were collected. The bacterial cells were resuspended with 8 mL of 50 mM PBS of pH=7.0. After ultrasonic crushing, centrifugation was carried out for 10 min at 4° C. and 12000×g, precipitates were removed, the supernatant was collected for the hydrolysis reaction of Dendrobium polysaccharides, and hydrolysis products were detected by using a DNS method.
By taking Dendrobium polysaccharides as a substrate, the enzymatic property of ThDPS was characterized. • 1. 0.2 g, 0.4 g, 0.8 g, 1.2 g, 1.6 g, 2.0 g, 2.4 g, and 3 g of Dendrobium polysaccharides were (Mw>100000 Da) weighed and dissolved in 1 L of distilled water to prepare Dendrobium polysaccharide solutions, and then 20 μL of an enzyme solution was added and reacted at 37° C. for 30 min. The enzyme solution was an enzyme solution of ThDPS prepared in Example 2 diluted with deionized water to a concentration of 100 μg/mL. […] Optimum temperature determination: 10 g/L Dendrobium polysaccharides were formulated as a reaction substrate. To a reaction system was added 0.4 mL of Dendrobium polysaccharides with a final concentration of 2 g/L, 200 μL of a 500 mM Tris-HCl buffer, and 20 μl of an enzyme solution (providing 10 U of catalytic activity), and 20 μl of distilled water was added to a control group. The water was replenished to a total volume of 2 mL for all reaction solutions. After fair mixing, the mixtures were placed in water baths at 20° C., 30° C., 40° C., 50° C., […], 70° C., 80° C., and […] and incubated for 30 min. The enzyme solution was an enzyme solution of ThDPS prepared in Example 2 diluted with deionized water to a concentration of 100 μg/mL. […]

| Molecule | enzymatic activity of expression product (hydrolysis of Dendrobium polysaccharides) (DNS method) [U/OD bacterial cells] | hydrolysis activity on the Dendrobium polysaccharides (in words) (expression products of recombinant E. coli, DNS method, FIG. 1) | pH of maximum activity (50 mM phosphate buffer, 37° C., 30 min) | optimal reaction temperature (2 g/L Dendrobium polysaccharides, Tris-HCl buffer, 30 min, 20-90° C.) [°C] | substrate inhibition (in words) (Dendrobium polysaccharide 0.2 g/L to 3 g/L) | increase of expression enzymatic activity level versus THGH without codon optimization (codon-optimized sequence, E. coli BL21 (DE3)) [times] | relative activity (percentage of maximum activity) (range of pH 6.0 to 10.0) | specific enzymatic activity (substrate concentration 2.4 g/L, 37° C., 30 min) [U/mg] | relative activity (percentage of maximum activity) (temperature between 40° C. and 60° C.) [%] |
| --- | --- | --- | --- | --- | --- | --- | --- | --- | --- |
| THGH: T. halotolerans-derived glycosidase expressed in E. coli from the non-optimized gene SEQ ID NO.1 (protein, Thermobifida halotolerans) MRKRLTVAAATILALLASVFVFAQPANAATGFYVDNGRLYEAGGQEFVIRGVSHPHAWYAQETDSFAGIKSHGANTVRVVLSNGVRWTKNDAADVANVISLCKQNRLICMLEVHDTTGYGEQSGASTLDQAVDYWIEIQSALEGQEDYVLINIGNEPYGNDSATVADWASDTSAAIQRMRDAGFDHTLVVDAPNWGQDWSHTMRDNAGSVYTSDPTGNTVFSIHMYGVYEQGSTVTSYLEHFVNAGLPIMIGEFGHDHSDGNPDEDTIMAEAERLGLGYIGWSWSGNGGGVEYLDMVNNFDADSLTSWGQRIFYGANGISSTAEEATVYGGGAPTDPPTDPPAEGDCSADYTTVGSWGGGFQGEVTVTAGDSAISNWTVSWTFPGGQSVSHGWNASFGGGSPVTASNAPYNGQLGAGQSTTFGFIGSGSAPGSLTLTCTTD | 68 | significant hydrolysis activity |  |  |  |  |  |  |  |
| ThDPS: T. halotolerans-derived glycosidase (SEQ ID NO.3) expressed in E. coli from codon-optimized gene SEQ ID NO.2, with 6× His-tag (protein, 6xHis tag; Thermobifida halotolerans) MRKRLTVAAATILALLASVFVFAQPANAATGFYVDNGRLYEAGGQEFVIRGVSHPHAWYAQETDSFAGIKSHGANTVRVVLSNGVRWTKNDAADVANVISLCKQNRLICMLEVHDTTGYGEQSGASTLDQAVDYWIEIQSALEGQEDYVLINIGNEPYGNDSATVADWASDTSAAIQRMRDAGFDHTLVVDAPNWGQDWSHTMRDNAGSVYTSDPTGNTVFSIHMYGVYEQGSTVTSYLEHFVNAGLPIMIGEFGHDHSDGNPDEDTIMAEAERLGLGYIGWSWSGNGGGVEYLDMVNNFDADSLTSWGQRIFYGANGISSTAEEATVYGGGAPTDPPTDPPAEGDCSADYTTVGSWGGGFQGEVTVTAGDSAISNWTVSWTFPGGQSVSHGWNASFGGGSPVTASNAPYNGQLGAGQSTTFGFIGSGSAPGSLTLTCTTD | 187 |  | 7.0 | 60 | no significant substrate inhibition | 2.75 | more than 90% | 5100 | ≥ 85 |
